Patent US20250051463A1, “CD123 ANTIBODY-DRUG CONJUGATES AND METHODS OF USING THE SAME” (ASTRAZENECA AB, priority 2023, published 2025)

Test system: healthy donor BMMC
Assay: Colony forming unit (CFU) assay
Format: cell-based, human
Conditions: 24 hours treatment, colonies at 14 days
Protocol: The potency of HT12-GL ADC (HT12-GL-SG3932) was compared to CD33 Mylotarg ADC and isotype ADC in colony forming unit (CFU) assays. For colony forming unit assays, primary healthy donor samples and AML patient samples were subjected to a dose titration of HT12-GL ADC (HT12-GL-SG3932), Isotype ADC, or Mylotarg for 24 hours. Cells were subsequently mixed in Methocult (StemCell) and seeded in 6-well SmartDish's (StemCell). Colonies were counted at 14 days post-seeding using a STEMvision instrument (StemCell). EC50 values were calculated based on the reduction of colonies following drug treatment compared to control groups.

Substance: Mylotarg: CD33 ADC Mylotarg [reference compound]
- CFU toxicity in healthy donor BMMC: toxic
